Measurements from publication PMC7378552, “Impact of the nisin modification machinery on the transport kinetics of NisT” (Scientific Reports, 2020).

B1: 10HNisT (deca-histidine tagged NisT, ABC transporter of the nisin precursor peptide) (natural protein, Lactococcus lactis, UniProt Q03203 1-600, looked up)
chain: MDEVKEFTSKQFFYTLLTLPSTLKLIFQLEKRYAIYLIVLNAITAFVPLASLFIYQDLINSVLGSGRHLINIIIIYFIVQVITTVLGQLESYVSGKFDMRLSYSINMRLMRTTSSLELSDYEQADMYNIIEKVTQDSTYKPFQLFNAIIVELSSFISLLSSLFFIGTWNIGVAILLLIVPVLSLVLFLRVGQLEFLIQWQRASSERETWYIVYLLTHDFSFKEIKLNNISNYFIHKFGKLKKGFINQDLAIARKKTYFNIFLDFILNLINILTIFAMILSVRAGKLLIGNLVSLIQAISKINTYSQTMIQNIYIIYNTSLFMEQLFEFLKRESVVHKKIEDTEICNQHIGTVKVINLSYVYPNSNAFALKNINLSFEKGELTAIVGKNGSGKSTLVKIISGLYQPTMGIIQYDKMRSSLMPEEFYQKNISVLFQDFVKYELTIRENIGLSDLSSQWEDEKIIKVLDNLGLDFLKTNNQYVLDTQLGNWFQEGHQLSGGQWQKIALARTFFKKASIYILDEPSAALDPVAEKEIFDYFVALSENNISIFISHSLNAARKANKIVVMKDGQVEDVGSHDVLLRRCQYYQELYYSEQYEDNDE
notes: NisT, lanthipeptide ABC transporter of Lactococcus lactis; nisT gene amplified from genomic DNA of L. lactis NZ97000 and inserted into pNZ-SV10H; TMD is residues 1-347, the NBD begins at H348; Used in detergent (CYMAL5) in the pull-down; also called WT; source: L. lactis NZ9000 (pNZ-SV10HnisT), membranes solubilised with FC-16, purified (IMAC, SEC); not shown: His10 (deca-histidine), N-terminal, …

Legend:
NisT (10HNisT) = biological target: T1, NisT (10HNisT) (Lactococcus lactis, UniProt Q03203); experiment: malachite green phosphate release assay, Michaelis-Menten fit; assay type: biochemical; details: basal ATPase, no peptide substrate; 1 µM NisT, ATP 0-5 mM, 10 mM MgCl2, 0.4% CYMAL5, 30 °C, 30 min
T1 construct: full length, N-terminal deca-His tag with linker (tag kept), homologous expression in L. lactis NZ9000, solubilised in Fos-choline-16, assayed in CYMAL5
T1 sequence (Q03203 1-600): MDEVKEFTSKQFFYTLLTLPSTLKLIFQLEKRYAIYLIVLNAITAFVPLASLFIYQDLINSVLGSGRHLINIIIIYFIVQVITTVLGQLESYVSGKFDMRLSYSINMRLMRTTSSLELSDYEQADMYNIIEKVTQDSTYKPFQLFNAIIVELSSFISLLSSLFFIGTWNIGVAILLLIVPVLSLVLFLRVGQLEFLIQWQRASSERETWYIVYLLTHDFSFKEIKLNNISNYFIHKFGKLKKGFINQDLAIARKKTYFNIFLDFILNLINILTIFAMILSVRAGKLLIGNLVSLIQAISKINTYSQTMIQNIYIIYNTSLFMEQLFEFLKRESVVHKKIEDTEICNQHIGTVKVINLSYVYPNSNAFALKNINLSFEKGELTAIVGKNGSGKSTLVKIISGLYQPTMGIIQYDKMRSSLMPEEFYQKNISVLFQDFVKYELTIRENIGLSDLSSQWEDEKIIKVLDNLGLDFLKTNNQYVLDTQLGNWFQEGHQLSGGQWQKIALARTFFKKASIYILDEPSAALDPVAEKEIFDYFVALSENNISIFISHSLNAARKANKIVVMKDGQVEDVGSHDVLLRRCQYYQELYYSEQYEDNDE

[1] = biological target: T2, NisB (dehydratase of nisin precursor peptide) (Lactococcus lactis, UniProt P20103 1-993); experiment: pull-down; 10HNisT (~15 ug) immobilised on Ni-NTA magnetic beads; 10 uM NisB, NisC or NisBC added without substrate; activity assay buffer with 0.4% CYMAL5, 400 mM glutamate, 5 mM MgATP; 1 h at 30 C; six washes, elution with 50 mM EDTA; Western blot; details: both partners purified
T2 construct: NisB, nisin dehydratase of Lactococcus lactis; NisB alone was not held on Ni-NTA beads, so it probably bore no His tag in the assay; source: purified
T2 sequence (looked up): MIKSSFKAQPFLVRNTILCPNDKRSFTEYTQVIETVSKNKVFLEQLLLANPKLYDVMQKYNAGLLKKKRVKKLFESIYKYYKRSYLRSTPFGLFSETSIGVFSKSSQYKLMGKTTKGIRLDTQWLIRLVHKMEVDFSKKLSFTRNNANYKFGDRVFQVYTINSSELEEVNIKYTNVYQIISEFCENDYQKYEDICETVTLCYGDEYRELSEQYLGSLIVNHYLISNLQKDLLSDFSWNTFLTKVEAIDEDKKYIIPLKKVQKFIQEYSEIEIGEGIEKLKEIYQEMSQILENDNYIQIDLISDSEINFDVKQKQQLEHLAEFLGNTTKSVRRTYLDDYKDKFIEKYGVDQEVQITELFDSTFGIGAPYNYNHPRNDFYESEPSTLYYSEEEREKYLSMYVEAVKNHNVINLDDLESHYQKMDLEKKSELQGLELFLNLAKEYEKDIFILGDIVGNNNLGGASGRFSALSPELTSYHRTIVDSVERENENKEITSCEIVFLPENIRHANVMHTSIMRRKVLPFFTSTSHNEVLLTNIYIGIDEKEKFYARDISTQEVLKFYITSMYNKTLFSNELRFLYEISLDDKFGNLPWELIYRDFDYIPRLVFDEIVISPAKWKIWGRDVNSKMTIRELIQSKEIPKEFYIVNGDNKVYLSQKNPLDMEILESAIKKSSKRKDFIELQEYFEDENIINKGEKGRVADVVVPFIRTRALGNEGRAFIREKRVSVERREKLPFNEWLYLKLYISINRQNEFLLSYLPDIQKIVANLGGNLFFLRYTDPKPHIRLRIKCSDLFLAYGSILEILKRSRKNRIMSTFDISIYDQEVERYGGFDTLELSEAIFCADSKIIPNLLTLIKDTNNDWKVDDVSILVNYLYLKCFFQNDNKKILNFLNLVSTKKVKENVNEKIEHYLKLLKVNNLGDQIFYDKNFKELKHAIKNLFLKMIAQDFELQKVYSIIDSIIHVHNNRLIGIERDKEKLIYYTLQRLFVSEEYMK

[2] = biological target: B1; experiment: as above; details: both partners purified

## Nc1ncnc2c1ncn2[C@@H]1O[C@H](COP(=O)(O)OP(=O)(O)OP(=O)(O)O)[C@@H](O)[C@H]1O [ATP]
NisT (10HNisT)
  Km: 370 ± 40 µM

## B1
[1]
  binding result: binds

B2: NisC (cyclase of nisin precursor peptide) (enzyme, Lactococcus lactis, UniProt Q03202 1-418, looked up)
chain: MRIMMNKKNIKRNVEKIIAQWDERTRKNKENFDFGELTLSTGLPGIILMLAELKNKDNSKIYQKKIDNYIEYIVSKLSTYGLLTGSLYSGAAGIALSILHLREDDEKYKNLLDSLNRYIEYFVREKIEGFNLENITPPDYDVIEGLSGILSYLLLINDEQYDDLKILIINFLSNLTKENNGLISLYIKSENQMSQSESEMYPLGCLNMGLAHGLAGVGCILAYAHIKGYSNEASLSALQKIIFIYEKFELERKKQFLWKDGLVADELKKEKVIREASFIRDAWCYGGPGISLLYLYGGLALDNDYFVDKAEKILESAMQRKLGIDSYMICHGYSGLIEICSLFKRLLNTKKFDSYMEEFNVNSEQILEEYGDESGTGFLEGISGCILVLSKFEYSINFTYWRQALLLFDDFLKGGKRK
notes: NisC, nisin cyclase of Lactococcus lactis; NisC alone was not held on Ni-NTA beads, so it probably bore no His tag in the assay; source: purified
[2]
  binding result: binds
